B1: TM-2-2 variant pJL 480E (848 R, 857 E) (receptor)
chain: MAEILLTSVINKSVEIAGNLLIQEGKRLYWLKEDIDWLQREMRHIRSYVDNAKAKEAGGDSRVKNLLKDIQELAGDVEDLLDDFLPKIQQSNKFNYCLKRSSFADEFAMEIEKIKRRVVDIDRIRKTYNIIDTDNNNDDCVLLDRRRLFLHADETEIIGLDDDFNMLQAKLLNQDLHYGVVSIVGMPGLGKTTLAKKLYRLIRDQFECSGLVYVSQQPRASEILLDIAKQIGLTEQKMKENLEDNLRSLLKIKRYVILLDDIWDVEIWDDLKLVLPECDSKVGSRMIITSRNSNVGRYIGGESSLHALQPLESEKSFELFTKKIFNFDDNNSWANASPDLVNIGRNIVGRCGGIPLAIVVTAGMLRARERTEHAWNRVLESMGHKVQDGCAKVLALSYNDLPIASRPCFLYFGLYPEDHEIRAFDLINMWIAEKFIVVNSGNRREAEDLAEDVLNDLVSRNLIQLAKRTYNGRISSCRIHDLLHSLCVDLAKESNFFHTAHDAFGDPGNVARLRRITFYSDNVMIEFFRSNPKLEKLRVLFCFAKDPSIFSHMAYFDFKLLHTLVVVMSQSFQAYVTIPSKFGNMTCLRYLRLEGNICGKLPNSIVKLTRLETIDIDRRSLIQPPSGVWESKHLRHLCYRDYGQACNSCFSISSFYPNIYSLHPNNLQTLMWIPDKFFEPRLLHRLINLRKLGILGVSNSTVKMLSIFSPVLKALEVLKLSFSSDPSEQIKLSSYPHIAKLHLNVNRTMALNSQSFPPNLIKLTLAYFSVDRYILAVLKTFPKLRKLKMFICKYNEEKMDLSGEANGYSFPQLEVLHIHSPNGLSEVTCTDDVSMPKLKKLLLTGFHRRISLSERLEKLSK
B2: TM-2-2 variant pJL 480I (848 R, 857 I) (receptor)
chain: B1 chain with E857I
B3: TM-2-2 variant pJL 480Q (848 R, 857 Q) (receptor)
chain: B1 chain with E857Q
B4: TM-2-2 variant pJL 480T (848 R, 857 T) (receptor)
chain: B1 chain with E857T
B5: TM-2-2 variant pJL 480R (848 R, 857 R) (receptor)
chain: B1 chain with E857R
B6: TM-2-2 variant pJL 468_A (848 A) (receptor)
chain: B1 chain with R848A, E857K
B7: TM-2-2 variant pJL 468_R (848 R) (receptor)
chain: B1 chain with E857K
B8: TM-2-2 variant pJL 468_H (848 H) (receptor)
chain: B1 chain with R848H, E857K
B9: TM-2-2 variant pJL 468_S (848 S) (receptor)
chain: B1 chain with R848S, E857K
B10: TM-2-2 variant pJL 468_D (848 D) (receptor)
chain: B1 chain with R848D, E857K
B11: TM-2-2 variant pJL 468_N (848 N) (receptor)
chain: B1 chain with R848N, E857K
B12: TM-2-2 variant pJL 468_M (848 M) (receptor)
chain: B1 chain with R848M, E857K
B13: TM-2-2 variant pJL 468_L (848 L) (receptor)
chain: B1 chain with R848L, E857K
B14: TM-2-2 variant pJL 468_K (848 K) (receptor)
chain: B1 chain with R848K, E857K
B15: TM-2-2 variant pJL 468_P (848 P) (receptor)
chain: B1 chain with R848P, E857K
B16: TM-2-2 variant pJL 468_E (848 E) (receptor)
chain: B1 chain with R848E, E857K
B17: TM-2-2 variant pJL 468_Q (848 Q) (receptor)
chain: B1 chain with R848Q, E857K
B18: TM-2-2 variant pJL 468_T (848 T) (receptor)
chain: B1 chain with R848T, E857K
B19: TM-2-2 variant L11_11 (767 C) (receptor)
chain: B1 chain with Y767C, R848C, E857K
B20: TM-2-2 variant L11_20 (767 V) (receptor)
chain: B1 chain with Y767V, R848C, E857K
B21: TM-2-2 variant L11_19 (767 N) (receptor)
chain: B1 chain with Y767N, R848C, E857K
B22: TM-2-2 variant L11_1 (767 R) (receptor)
chain: B1 chain with Y767R, R848C, E857K
B23: TM-2-2 variant L11_15 (767 L) (receptor)
chain: B1 chain with Y767L, R848C, E857K
B24: TM-2-2 variant L11_16 (767 G) (receptor)
chain: B1 chain with Y767G, R848C, E857K
B25: TM-2-2 variant L11_10 (767 I) (receptor)
chain: B1 chain with Y767I, R848C, E857K
B26: TM-2-2 variant L12_3 (769 V) (receptor)
chain: B1 chain with S769V, R848C, E857K
B27: TM-2-2 variant L12_11 (769 G) (receptor)
chain: B1 chain with S769G, R848C, E857K
B28: TM-2-2 variant L12_16 (769 E) (receptor)
chain: B1 chain with S769E, R848C, E857K
B29: TM-2-2 variant L12_12 (769 R) (receptor)
chain: B1 chain with S769R, R848C, E857K
B30: TM-2-2 variant L12_4 (769 F) (receptor)
chain: B1 chain with S769F, R848C, E857K
B31: TM-2-2 variant L12_A (769 A) (receptor)
chain: B1 chain with S769A, R848C, E857K
B32: TM-2-2 variant pJL 476_I (822 I, 848 R) (receptor)
chain: B1 chain with N822I, E857K
B33: TM-2-2 variant pJL 476_S (822 S, 848 R) (receptor)
chain: B1 chain with N822S, E857K
B34: TM-2-2 variant pJL 476_R (822 R, 848 R) (receptor)
chain: B1 chain with N822R, E857K
B35: TM-2-2 variant pJL 476_K (822 K, 848 R) (receptor)
chain: B1 chain with N822K, E857K
B36: TM-2-2 variant pJL 477_D (822 D, 848 R) (receptor)
chain: B1 chain with N822D, E857K
B37: TM-2-2 variant pJL 476_F (822 F, 848 R) (receptor)
chain: B1 chain with N822F, E857K
B38: TM-2-2 variant pJL 477_H (822 H, 848 R) (receptor)
chain: B1 chain with N822H, E857K
B39: TM-2-2 variant pJL 476_C (822 C, 848 R) (receptor)
chain: B1 chain with N822C, E857K
B40: TM-2-2 variant pJL 476_T (822 T, 848 R) (receptor)
chain: B1 chain with N822T, E857K
B41: TM-2-2 variant pJL 511_5 (767 Y wt, 769 S wt, 848 R) (receptor)
chain: B1 chain with E857K
B42: TM-2-2 variant pJL 511_1 (767 S, 769 A, 848 R) (receptor)
chain: B1 chain with Y767S, S769A, E857K
B43: TM-2-2 variant pJL 511_3 (767 Y, 769 A, 848 R) (receptor)
chain: B1 chain with S769A, E857K
B44: TM-2-2 variant pJL 511_2 (767 S, 848 R) (receptor)
chain: B1 chain with Y767S, E857K

Where a chain is given by its changes, count along the chain named.

Data on 44 molecules can be found in patent publication US20240049668A1 (VILMORIN AND CIE, published 2024).

For the first assay, the target named is T1, Movement Protein of ToBRFV (Tomato Brown Rugose Fruit Virus …, UniProt A0A0S2SZW1 1-266).
T1 sequence: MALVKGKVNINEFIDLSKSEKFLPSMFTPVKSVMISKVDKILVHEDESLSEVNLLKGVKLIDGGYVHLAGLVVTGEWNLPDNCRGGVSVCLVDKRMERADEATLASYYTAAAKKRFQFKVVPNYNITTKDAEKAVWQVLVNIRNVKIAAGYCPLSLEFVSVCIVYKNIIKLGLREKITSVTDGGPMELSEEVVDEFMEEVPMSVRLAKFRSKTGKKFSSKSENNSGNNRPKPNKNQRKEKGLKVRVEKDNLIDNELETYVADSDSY
The experiment in a line: cell-based or functional assay.
As for B1, the “HR to MP Rugose” value is below 1 HR scale 0-4.

For the molecule B2, the “HR to MP Rugose” value was below 1 HR scale 0-4.

Take B3: the “HR to MP Rugose” value was determined as 3 HR scale 0-4.

On to B4, for which the “HR to MP Rugose” value is below 1 HR scale 0-4.

In the case of B5, the “HR to MP Rugose” value was below 1 HR scale 0-4.

A further assay addresses T1, Movement Protein of ToBRFV. Description: cell-based or functional assay. This is another data set of the same source.
Consider B6, for which the “HR when expressed with MP Rugose” value was below 1 HR scale 0-4.

Turning to B7, the “HR when expressed with MP Rugose” value was 4 HR scale 0-4.

In the case of B8, the “HR when expressed with MP Rugose” value is below 1 HR scale 0-4.

Regarding B9, the “HR when expressed with MP Rugose” value was around 1 HR scale 0-4.

For the molecule B10, the “HR when expressed with MP Rugose” value is below 1 HR scale 0-4.

Turning to B11, the “HR when expressed with MP Rugose” value was below 1 HR scale 0-4.

Consider B12, for which the “HR when expressed with MP Rugose” value is below 1 HR scale 0-4.

B13: the “HR when expressed with MP Rugose” value was below 1 HR scale 0-4.

As to B14, the “HR when expressed with MP Rugose” value was around 1 HR scale 0-4.

Consider B15, for which the “HR when expressed with MP Rugose” value was below 1 HR scale 0-4.

In the case of B16, the “HR when expressed with MP Rugose” value was below 1 HR scale 0-4.

On to B17, for which the “HR when expressed with MP Rugose” value is below 1 HR scale 0-4.

For B18, the “HR when expressed with MP Rugose” value was around 1 HR scale 0-4.

The next assay concerns the target T1, Movement Protein of ToBRFV. Description: cell-based or functional assay. This is another data set of the same source.
As for B19, the “HR to MP Rugose” value was found to be 0 HR scale 0-4.

On to B20, for which the “HR to MP Rugose” value worked out at 0 HR scale 0-4.

In the case of B21, the “HR to MP Rugose” value is 0 HR scale 0-4.

On to B22, for which the “HR to MP Rugose” value was below 1 HR scale 0-4.

On to B23, for which the “HR to MP Rugose” value was 0 HR scale 0-4.

For the molecule B24, the “HR to MP Rugose” value turned out to be 0 HR scale 0-4.

Turning to B25, the “HR to MP Rugose” value worked out at 0 HR scale 0-4.

The target in a further assay is T1, Movement Protein of ToBRFV. Description: cell-based or functional assay. This is another data set of the same source.
With B26, the “HR to MP Rugose” value is below 1 HR scale 0-4.

B27: the “HR to MP Rugose” value was below 1 HR scale 0-4.

On to B28, for which the “HR to MP Rugose” value was below 1 HR scale 0-4.

B29: the “HR to MP Rugose” value was below 1 HR scale 0-4.

As to B30, the “HR to MP Rugose” value was below 1 HR scale 0-4.

As for B31, the “HR to MP Rugose” value was 0 HR scale 0-4.

In another assay the target is T1, Movement Protein of ToBRFV. Description: cell-based or functional assay. The source holds these as a separate data set.
Regarding B32, the “HR to MP Rugose” value came out at 0 HR scale 0-4.

For B33, the “HR to MP Rugose” value stood at 4 HR scale 0-4.

For the molecule B34, the “HR to MP Rugose” value was 0 HR scale 0-4.

Consider B35, for which the “HR to MP Rugose” value worked out at 0 HR scale 0-4.

Turning to B36, the “HR to MP Rugose” value is below 1 HR scale 0-4.

Consider B37, for which the “HR to MP Rugose” value came to 2 HR scale 0-4.

Regarding B38, the “HR to MP Rugose” value was below 1 HR scale 0-4.

For B39, the “HR to MP Rugose” value worked out at 2 HR scale 0-4.

Turning to B40, the “HR to MP Rugose” value is below 1 HR scale 0-4.

For the next assay, the target named is T1, Movement Protein of ToBRFV. Description: cell-based or functional assay. The source holds these as a separate data set.
With B41, the “HR to MP Rugose” value is 4 HR scale 0-4.

As to B42, the “HR to MP Rugose” value was 0 HR scale 0-4.

For the molecule B43, the “HR to MP Rugose” value was determined as 4 HR scale 0-4.

As to B44, the “HR to MP Rugose” value stood at 0 HR scale 0-4.
